Measured values from the supplement of paper PMC7125110.
± gives the standard error. Variants at the floor of the assay were thinned out.

B1: glmS ribozyme (parent)
chain: AUAAAAGCGCCAGAACUACAGAAAUGUAGUUGACGAGGAGGAGGUUUAUCGAAUUUUCGGCGGAUGCCUCCAAA

Legend:
Settings in all cases: with glucosamine-6-phosphate
[1] = variants of: B1; test: self-cleavage kobs at 160 uM GlcN6P; higher = faster cleavage; RNA array
In short: (§1)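 Weighted Michaelis–Menten fits across concentrations supplied kcat and KM, based on kobs from one- or two-exponential decay fits to normalised per-tile medians. The data came from barcoded ribozyme variants transcribed in situ by E. coli RNA polymerase on sequenced MiSeq chips and tracked at 37 °C by a hybridised Cy3 probe. Glucosamine-6-phosphate (40 μM to 10 mM) in HEPES/KCl/Mg(OAc)2 buffer was flowed in.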

[2] = variants of: B1; test: self-cleavage kobs at 640 uM GlcN6P; higher = faster cleavage; RNA array
In short: as §1

[3] = variants of: B1; test: self-cleavage kobs at 2500 uM GlcN6P; higher = faster cleavage; RNA array
In short: as §1

[4] = variants of: B1; test: self-cleavage kobs at 10000 uM GlcN6P; higher = faster cleavage; RNA array
In short: as §1

Row | Variant | self-cleavage kobs at 160 uM GlcN6P [1] [s⁻¹] | self-cleavage kobs at 640 uM GlcN6P [2] [s⁻¹] | self-cleavage kobs at 2500 uM GlcN6P [3] [s⁻¹] | self-cleavage kobs at 10000 uM GlcN6P [4] [s⁻¹]
1 | A53C U54G | 0.000308 ± 0.00011 | 0.000352 ± 0.00012 | 0.000803 ± 0.00021 | –
2 | A15U A42C | < 1e-05 | < 1e-05 | < 1e-05 | < 1e-05
3 | G38A G41U U56G | < 1e-05 | < 1e-05 | < 1e-05 | –
4 | C10G A53C | < 1e-05 | < 1e-05 | < 1e-05 | < 1e-05
5 | U57G C58A G63U | < 1e-05 | – | – | –
6 | G7C C58A | < 1e-05 | < 1e-05 | < 1e-05 | < 1e-05
7 | U49A A52U | < 1e-05 | < 1e-05 | < 1e-05 | < 1e-05
8 | A14C A53U C67G | 3.21e-05 ± 1.4e-05 | 0.000135 ± 2.7e-05 | 0.000238 ± 4.6e-05 | –
9 | G32C A42G A64U | < 1e-05 | < 1e-05 | < 1e-05 | –
10 | U31A A42C C70G | < 1e-05 | < 1e-05 | – | –
11 | A6G G40U U54A | < 1e-05 | < 1e-05 | – | –
12 | U54A U56C G66A C70U | 7.54e-05 ± 1.5e-05 | 0.000185 ± 4.1e-05 | 0.000395 ± 9.4e-05 | –
13 | A33U G44C A52U | < 1e-05 | – | < 1e-05 | –
14 | A33U A53U U69G | 3.89e-05 ± 1.8e-05 | 0.000215 ± 7.6e-05 | 5.61e-05 ± 2.6e-05 | –
15 | C10U C34U G38C A39U | < 1e-05 | – | – | –
16 | C8A U57C | < 1e-05 | < 1e-05 | < 1e-05 | –
17 | G32C A64G | < 1e-05 | – | 5.42e-05 ± 1.9e-05 | –
18 | C8G A14G C34G | < 1e-05 | < 1e-05 | < 1e-05 | –
19 | G13C U45G U56A G63A U65C | < 1e-05 | < 1e-05 | < 1e-05 | –
20 | U31A U46G G66A | 6.92e-05 ± 2.9e-05 | 0.000303 ± 0.00015 | 0.000638 ± 0.00022 | –
21 | A39C U65A C71G | < 1e-05 | < 1e-05 | < 1e-05 | –
22 | G9U C58G G63U | < 1e-05 | – | < 1e-05 | < 1e-05
